Numbering of substitutions follows the chain as printed.

In assay [1] the target is T1, human IgA (hIgA) (human).
T1 chain: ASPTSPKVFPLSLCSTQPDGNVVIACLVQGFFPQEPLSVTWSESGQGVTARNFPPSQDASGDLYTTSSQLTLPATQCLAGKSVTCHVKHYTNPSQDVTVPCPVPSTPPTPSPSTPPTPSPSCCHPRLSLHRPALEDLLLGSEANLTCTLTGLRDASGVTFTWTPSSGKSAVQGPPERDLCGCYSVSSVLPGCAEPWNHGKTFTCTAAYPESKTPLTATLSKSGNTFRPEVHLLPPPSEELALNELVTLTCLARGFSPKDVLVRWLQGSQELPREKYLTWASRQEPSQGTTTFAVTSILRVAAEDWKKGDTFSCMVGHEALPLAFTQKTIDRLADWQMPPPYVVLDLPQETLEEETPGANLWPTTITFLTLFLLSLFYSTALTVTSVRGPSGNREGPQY
The assay is described as follows: SPR (Biacore T200), antibody captured on ProA/G on CM4 chip, hIgA as analyte, single cycle kinetics, 25 C, in the presence of 100 µM MTA; 100 µM MTA in the antigen buffer.

The target in assay [2] is T2, human IL-6 receptor (hIL-6R) (human, UniProt P08887 20-357, limits assumed).
T2 sequence: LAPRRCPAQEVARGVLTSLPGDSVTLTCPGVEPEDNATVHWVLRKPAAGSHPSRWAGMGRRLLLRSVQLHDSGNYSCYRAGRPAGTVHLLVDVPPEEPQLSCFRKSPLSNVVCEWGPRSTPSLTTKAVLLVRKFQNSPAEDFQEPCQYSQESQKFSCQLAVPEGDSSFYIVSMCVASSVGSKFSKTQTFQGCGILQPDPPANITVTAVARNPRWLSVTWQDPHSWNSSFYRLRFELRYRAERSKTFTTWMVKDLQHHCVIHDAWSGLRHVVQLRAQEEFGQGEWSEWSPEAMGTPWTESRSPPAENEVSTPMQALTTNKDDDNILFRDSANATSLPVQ
Nature of the assay: SPR (Biacore T200), antibody captured on ProA/G on CM4 chip, hIL-6R as analyte, single cycle kinetics, 25 C, in the presence of 100 µM MTA; 100 µM MTA in the antigen buffer. As to the method: (§1) The effects of MTA and adenosine on the antigen-antibody reaction between the antibodies purified and produced in Example (4-5) and the target antigens were evaluated using Biacore T200 (GE Healthcare). 20 mM ACES, 150 mM NaCl, 0.05% (w/v) Tween20, pH 7.4 was used as the running buffer, and the measurement was performed at 25° C. Changes in the amount of binding between antigens and antibodies were observed by immobilizing ProA/G on the sensor chip CM4 by amine coupling, immobilizing the antibody on it, and then interacting with various antigens as analytes. The running buffer and a buffer prepared by adding either MTA or adenosine to the running buffer at a final concentration of 100 μM were used to dilute the antigens. In addition, the antigens were prepared in concentration series of several steps, and the dissociation constant KD of each clone was calculated by single cycle kinetics analysis from the sensorgram for each antigen concentration. Biacore T200 Evaluation Software (GE Healthcare) was used to calculate the parameters.
Background: SPR reads the build-up and loss of mass on a sensor chip optically.

Assay [3] has as its target human IL-6 (hIL-6) (human). Nature of the assay: SPR (Biacore T200), antibody captured on ProA/G on CM4 chip, hIL-6 as analyte, single cycle kinetics, 25 C, in the presence of 100 µM MTA; 100 µM MTA in the antigen buffer. How it is done:
as §1

Chain of human IL-6 (hIL-6) (human) (P05231 30-212): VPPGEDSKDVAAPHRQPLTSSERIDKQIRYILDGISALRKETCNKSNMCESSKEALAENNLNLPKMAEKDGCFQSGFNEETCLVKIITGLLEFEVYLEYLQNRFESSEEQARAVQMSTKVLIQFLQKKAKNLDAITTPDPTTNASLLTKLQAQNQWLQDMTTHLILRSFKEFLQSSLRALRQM

B1: IAS2T001H-F760mnN17/IAS2T001L-KT0 (antibody, human IgG1, kappa, N297A, V domains shown)
VH: QVQLVQSGAEVKKPGASVKVSCKVSDIQDEQYAFGWVRQPPGKGLEWIGIIGATGHVWYPQWVKGRFTISKDNSKNQVVLTMTNMDPVDTATYYCARGHKQHFTNAFDPWGQGTLVTVSS
VL: DIQLTQSPSSLSASVGDRVTITCQSSQSVYKNNYLSWYQQKPGQPPKLLIYDASTLASGVPSRFSGSGSGTDFTLTINSLEAEDAATYYCHGAYLYLGVDNAFGGGTEVVVKR
notes: From the MTA-concentrated S02 library; Target antigen is hIgA
Usually Kd stands for a measure of binding affinity in units of concentration. Turning to B1, the dissociation constant (Kd) in assay [1] is 689 nM.

B2: 6RS2T007H-F760mnN17/6RS2T007L-KT0 (antibody, human IgG1, kappa, N297A, V domains shown)
VH: QVQLVQSGAEVKKPGASVKVSCKVSNIVLMQHTYGWVRQPPGKGLEWIGIIGGDGHAWYPRWVKGRFTISKDNSKNQVVLTMTNMDPVDTATYYCARGGKDGFTNAWDPWGQGTLVTVSS
VL: DIQLTQSPSSLSASVGDRVTITCQSSQSVFNNNGLSWYQQKPGQPPKLLIYDASTLASGVPSRFSGSGSGTDFTLTINSLEAEDAATYYCHGSQATQIWWDNAFGGGTEVVVKR
notes: From the MTA-concentrated S02 library (humanized SMB0002 template); also called MTA-dependent anti-hIL-6R antibody
Consider B2, for which the Kd in assay [2] is 1010 nM.

B3: 6LS2T001H-F760mnN17/6LS2T001L-KT0 (antibody, human IgG1, kappa, N297A, V domains shown)
VH: QVQLVQSGAEVKKPGASVKVSCKVSDIDAMQYTYGWVRQPPGKGLEWIGIIGEGGEVWYPYWVKGRFTISKDNSKNQVVLTMTNMDPVDTATYYCARGYHEGFVNAWDPWGQGTLVTVSS
VL: B2 VL with Q3K, F30L, N31W, G34Y, A95F, T96E, I98W, W99V, W100F
notes: From the MTA-concentrated S02 library; Target antigen is hIL-6
For B3, the dissociation constant Kd in assay [3] worked out at 126 nM.

The values above are taken from patent US20220153875A1 (Chugai, published 2022).
